Test results reported in the supplement of paper PMC9112550, “Optimization of the antimicrobial peptide Bac7 by deep mutational scanning” (BMC Biology, 2022).

Tested on: Escherichia coli TOP10
Test: shrunken log2 fold change of peptide-encoding DNA abundance (4.5 h post-induction vs induction); higher = less antimicrobial activity (less host growth inhibition)
Settings: time post-induction: 4.5 h; library: site-saturation at positions 5, 18, 19, 20
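Further: peptides expressed intracellularly from a pBAD plasmid library in pooled LB shake-flask culture, induced with 0.3% L-arabinose, DNA abundance read by NGS, three biological replicates, DESeq2 with apeglm shrinkage.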

| Sequence | shrunken log2 fold change |
| --- | --- |
| RRIRIRPPRLPRPRPRPWKKPRP | 0.00748 |
| RRIRHRPPRLPRPRPRPICAPRP | -0.0362 |
| RRIRRRPPRLPRPRPRPMPWPRP | 0.119 |
| RRIRCRPPRLPRPRPRPDMSPRP | -0.329 |
| RRIRPRPPRLPRPRPRPMCMPRP | -0.32 |
| RRIRYRPPRLPRPRPRPMWYPRP | -0.884 |
| RRIRVRPPRLPRPRPRPTMAPRP | 0.235 |
| RRIRERPPRLPRPRPRPISPPRP | -0.356 |
| RRIRHRPPRLPRPRPRPGGPPRP | -0.355 |
| RRIRKRPPRLPRPRPRPNPNPRP | 0.179 |
| RRIRHRPPRLPRPRPRPVMQPRP | -0.01 |
| RRIRSRPPRLPRPRPRPCDYPRP | -0.238 |
| RRIRIRPPRLPRPRPRPGRVPRP | 0.0447 |
| RRIRPRPPRLPRPRPRPGWIPRP | -0.0354 |
| RRIRRRPPRLPRPRPRPPNNPRP | 0.177 |
| RRIRIRPPRLPRPRPRPNERPRP | -0.319 |
| RRIRYRPPRLPRPRPRPLVCPRP | -0.325 |
| RRIRKRPPRLPRPRPRPDSTPRP | -0.0499 |
| RRIRLRPPRLPRPRPRPGTPPRP | 0.0973 |
| RRIRARPPRLPRPRPRPPQRPRP | 1.16 |
| RRIRCRPPRLPRPRPRPRRVPRP | 0.342 |
| RRIRPRPPRLPRPRPRPYHCPRP | -0.0484 |

| Sequence | shrunken log2 fold change |
| --- | --- |
| RRIRMRPPRLPRPRPRPKCPPRP | 0.108 |
| RRIRERPPRLPRPRPRPSRMPRP | -0.0294 |
| RRIRQRPPRLPRPRPRPARPPRP | 0.516 |
| RRIRIRPPRLPRPRPRPKEMPRP | -0.297 |
| RRIRERPPRLPRPRPRPGGLPRP | -0.00977 |
| RRIRCRPPRLPRPRPRPATKPRP | 0.0383 |
| RRIRSRPPRLPRPRPRPVVQPRP | -0.0812 |
| RRIRFRPPRLPRPRPRPPWTPRP | 0.123 |
| RRIRVRPPRLPRPRPRPYYDPRP | -0.429 |
| RRIRFRPPRLPRPRPRPRCGPRP | 0.114 |
| RRIRARPPRLPRPRPRPCPTPRP | 0.088 |
| RRIRERPPRLPRPRPRPEFIPRP | -0.335 |
| RRIRVRPPRLPRPRPRPARPPRP | 0.486 |
| RRIRPRPPRLPRPRPRPRKLPRP | 0.342 |
| RRIRKRPPRLPRPRPRPDFFPRP | 0.0109 |
| RRIRCRPPRLPRPRPRPTTCPRP | -0.293 |
| RRIRERPPRLPRPRPRPHNTPRP | -0.731 |
| RRIRTRPPRLPRPRPRPAVDPRP | -0.209 |
| RRIRNRPPRLPRPRPRPVQWPRP | -0.0368 |
| RRIRRRPPRLPRPRPRPYKKPRP | 0.142 |
| RRIRDRPPRLPRPRPRPMCSPRP | 0.261 |
| RRIRMRPPRLPRPRPRPQQAPRP | 0.0303 |

| Sequence | shrunken log2 fold change |
| --- | --- |
| RRIRRRPPRLPRPRPRPLSFPRP | -0.0589 |
| RRIRRRPPRLPRPRPRPDHWPRP | -0.136 |
| RRIRFRPPRLPRPRPRPPSWPRP | 0.4 |
| RRIRHRPPRLPRPRPRPVRAPRP | 0.571 |
| RRIRIRPPRLPRPRPRPMIPPRP | 1.87 |
| RRIRVRPPRLPRPRPRPYGEPRP | -0.204 |
| RRIRIRPPRLPRPRPRPKRLPRP | 0.181 |
| RRIRNRPPRLPRPRPRPLTFPRP | -0.0233 |
| RRIRNRPPRLPRPRPRPHENPRP | -0.164 |
| RRIRCRPPRLPRPRPRPELAPRP | 0.403 |
| RRIRCRPPRLPRPRPRPFRRPRP | -0.237 |
| RRIRGRPPRLPRPRPRPEAGPRP | 1.21 |
| RRIRQRPPRLPRPRPRPHQQPRP | -0.101 |
| RRIRARPPRLPRPRPRPKMQPRP | 0.32 |
| RRIRCRPPRLPRPRPRPPKPPRP | 0.692 |
| RRIRARPPRLPRPRPRPPLGPRP | 0.671 |
| RRIRWRPPRLPRPRPRPNIFPRP | 0.0551 |
| RRIRFRPPRLPRPRPRPCCMPRP | -0.579 |
| RRIRERPPRLPRPRPRPMVIPRP | -0.0351 |
| RRIRLRPPRLPRPRPRPVFLPRP | -0.207 |
| RRIRARPPRLPRPRPRPHNDPRP | -0.34 |
| RRIRIRPPRLPRPRPRPAWRPRP | 0.263 |

| Sequence | shrunken log2 fold change |
| --- | --- |
| RRIRQRPPRLPRPRPRPEASPRP | -0.0802 |
| RRIRSRPPRLPRPRPRPFQMPRP | 0.00561 |
| RRIRGRPPRLPRPRPRPKRDPRP | 0.738 |
| RRIRLRPPRLPRPRPRPLVNPRP | -0.346 |
| RRIRCRPPRLPRPRPRPNQYPRP | -0.92 |
| RRIRDRPPRLPRPRPRPCWHPRP | 2.46 |
| RRIRIRPPRLPRPRPRPMKEPRP | 0.116 |
| RRIRKRPPRLPRPRPRPLTWPRP | 0.13 |
| RRIRWRPPRLPRPRPRPIGFPRP | 0.0993 |
| RRIRLRPPRLPRPRPRPICMPRP | -0.456 |
| RRIRNRPPRLPRPRPRPSYYPRP | -0.877 |
| RRIRDRPPRLPRPRPRPQMQPRP | 0.135 |
| RRIRYRPPRLPRPRPRPWHLPRP | -0.0873 |
| RRIRHRPPRLPRPRPRPEFYPRP | -0.0662 |
| RRIRIRPPRLPRPRPRPVICPRP | -0.063 |
| RRIRVRPPRLPRPRPRPMSEPRP | 0.0558 |
| RRIRHRPPRLPRPRPRPRWFPRP | 0.161 |
| RRIRPRPPRLPRPRPRPHIPPRP | -0.492 |
| RRIRGRPPRLPRPRPRPQECPRP | 0.226 |
| RRIRSRPPRLPRPRPRPTGHPRP | -0.0852 |
| RRIRERPPRLPRPRPRPMLQPRP | -0.161 |
| RRIRHRPPRLPRPRPRPQSIPRP | -0.0188 |

| Sequence | shrunken log2 fold change |
| --- | --- |
| RRIRVRPPRLPRPRPRPGTCPRP | 0.0803 |
| RRIRLRPPRLPRPRPRPWRCPRP | 0.336 |
| RRIRKRPPRLPRPRPRPVKPPRP | 0.0508 |
| RRIRLRPPRLPRPRPRPSHIPRP | -0.877 |
| RRIRIRPPRLPRPRPRPTPVPRP | 0.234 |
| RRIRWRPPRLPRPRPRPKMHPRP | 0.386 |
| RRIRNRPPRLPRPRPRPTQMPRP | 0.0452 |
| RRIRTRPPRLPRPRPRPDEGPRP | -0.0183 |
| RRIRGRPPRLPRPRPRPEHAPRP | 2.78 |
| RRIRCRPPRLPRPRPRPTQAPRP | 0.199 |
| RRIRDRPPRLPRPRPRPVDRPRP | 0.358 |
| RRIRRRPPRLPRPRPRPRMYPRP | -0.152 |
| RRIRYRPPRLPRPRPRPGTFPRP | -0.53 |
| RRIRGRPPRLPRPRPRPPEAPRP | 1.33 |
| RRIRMRPPRLPRPRPRPCLNPRP | -0.0184 |
| RRIRGRPPRLPRPRPRPPCAPRP | 0.978 |
| RRIRVRPPRLPRPRPRPTPEPRP | 0.639 |
| RRIRERPPRLPRPRPRPEPDPRP | 0.0002 |
| RRIRFRPPRLPRPRPRPHHDPRP | -0.379 |
| RRIRGRPPRLPRPRPRPGLGPRP | 1.67 |
| RRIRKRPPRLPRPRPRPEMKPRP | 0.682 |
